Data on 3 molecules can be found in publication PMC8531357, “Regulation of plant phototropic growth by NPH3/RPT2-like substrate phosphorylation and 14-3-3 binding” (Nature Communications, 2021).

One test deals with 14-3-3 Epsilon (UniProt P48347). Nature of the test: far-western of anti-GFP IP, GST-14-3-3 probe. Particulars: reference: wild-type GFP-NPH3; sites S744.
The target of test [1] is T1, GFP-NPH3 (NON-PHOTOTROPIC HYPOCOTYL 3) (Arabidopsis, UniProt Q9FMF5 1-746, phosphoserine at 744 after blue light irradiation (pS744 antibody), not in darkness; phosphorylated on multiple other sites in darkness (including S213, S223, S233, S237), dephosphorylated after blue …).
T1 construct: NPH3 (NON-PHOTOTROPIC HYPOCOTYL 3), Arabidopsis; S746 is the last residue; The state of the protein differs between dark and blue-light-treated seedlings; the two are kept apart by the assay; also called NPH3::GFP-NPH3; source: etiolated Arabidopsis nph3 seedlings expressing NPH3::GFP-NPH3; total protein extract, anti-GFP immunoprecipitated
T1 sequence (looked up): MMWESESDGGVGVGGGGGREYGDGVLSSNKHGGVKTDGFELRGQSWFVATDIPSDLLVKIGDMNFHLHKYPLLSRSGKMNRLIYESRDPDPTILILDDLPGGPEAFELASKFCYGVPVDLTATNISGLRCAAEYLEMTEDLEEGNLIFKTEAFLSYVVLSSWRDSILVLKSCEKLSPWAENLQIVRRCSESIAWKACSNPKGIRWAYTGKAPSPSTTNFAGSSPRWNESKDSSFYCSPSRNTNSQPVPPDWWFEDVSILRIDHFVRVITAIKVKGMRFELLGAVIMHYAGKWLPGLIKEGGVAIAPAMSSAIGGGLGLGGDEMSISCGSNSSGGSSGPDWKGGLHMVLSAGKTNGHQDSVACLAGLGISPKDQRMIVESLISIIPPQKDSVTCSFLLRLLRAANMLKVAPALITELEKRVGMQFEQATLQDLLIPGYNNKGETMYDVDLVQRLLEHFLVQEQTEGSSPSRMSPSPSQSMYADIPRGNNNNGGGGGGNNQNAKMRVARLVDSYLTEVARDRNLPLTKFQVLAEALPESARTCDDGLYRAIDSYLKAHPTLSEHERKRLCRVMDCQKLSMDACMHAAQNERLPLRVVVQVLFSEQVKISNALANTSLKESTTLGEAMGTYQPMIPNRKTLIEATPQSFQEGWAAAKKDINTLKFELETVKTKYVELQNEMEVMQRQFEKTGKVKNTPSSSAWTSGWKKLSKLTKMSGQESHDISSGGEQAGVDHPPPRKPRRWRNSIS
Nature of the test: far-Western, overlay or dot blot; GFP-Trap immunoprecipitates from etiolated seedlings irradiated with 20 µmol m^-2 s^-1 blue light for 15 min (L), separated by SDS-PAGE, on PVDF; probed with purified GST-14-3-3 or GST alone at 1 µM in 20 mM HEPES-KOH pH 7.7, 75 mM KCl, 0.1 mM EDTA, 1 mM DTT, 2% milk, 0.04% Tween-20; detected with anti-GST. Particulars: both partners purified.

For a further test, the target named is T2, GFP-NPH3 S746A (Arabidopsis, UniProt Q9FMF5 1-746, S746A, phosphoserine at 744 after blue light irradiation, at a reduced level (pS744 antibody)).
T2 construct: NPH3, Arabidopsis; source: etiolated Arabidopsis nph3 seedlings expressing NPH3::GFP-NPH3 S746A; total protein extract, anti-GFP immunoprecipitated
T2 sequence (looked up): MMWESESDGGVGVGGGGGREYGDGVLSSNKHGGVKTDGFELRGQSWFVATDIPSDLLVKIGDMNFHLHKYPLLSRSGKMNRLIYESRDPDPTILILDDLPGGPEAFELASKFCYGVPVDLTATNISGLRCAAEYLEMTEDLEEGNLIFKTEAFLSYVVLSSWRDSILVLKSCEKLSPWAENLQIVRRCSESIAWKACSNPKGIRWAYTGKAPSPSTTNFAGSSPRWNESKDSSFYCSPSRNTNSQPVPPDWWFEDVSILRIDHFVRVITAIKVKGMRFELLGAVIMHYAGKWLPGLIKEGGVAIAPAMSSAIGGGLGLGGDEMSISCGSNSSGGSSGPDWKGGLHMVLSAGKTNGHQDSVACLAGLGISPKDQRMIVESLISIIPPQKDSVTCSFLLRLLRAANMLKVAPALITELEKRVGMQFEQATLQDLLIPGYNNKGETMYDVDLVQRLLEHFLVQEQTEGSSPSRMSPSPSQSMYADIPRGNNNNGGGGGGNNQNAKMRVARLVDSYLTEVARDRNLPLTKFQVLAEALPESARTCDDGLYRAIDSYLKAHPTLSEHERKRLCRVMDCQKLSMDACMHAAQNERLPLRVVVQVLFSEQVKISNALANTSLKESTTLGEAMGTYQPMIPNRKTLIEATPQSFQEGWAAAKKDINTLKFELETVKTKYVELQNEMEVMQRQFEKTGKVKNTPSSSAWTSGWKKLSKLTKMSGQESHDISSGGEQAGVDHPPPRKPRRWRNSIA
The description is as above. The following applies: both partners purified.

For “NPH3 (NON-PHOTOTROPIC HYPOCOTYL 3) (from UniProt Q9FMF5) S744A”, the “binding against the reference” value in the test with 14-3-3 Epsilon is recorded as “lost”.

B1: GST-14-3-3 Lambda (natural protein, Arabidopsis, UniProt P48349 1-248, looked up)
chain: MAATLGRDQYVYMAKLAEQAERYEEMVQFMEQLVTGATPAEELTVEERNLLSVAYKNVIGSLRAAWRIVSSIEQKEESRKNDEHVSLVKDYRSKVESELSSVCSGILKLLDSHLIPSAGASESKVFYLKMKGDYHRYMAEFKSGDERKTAAEDTMLAYKAAQDIAAADMAPTHPIRLGLALNFSVFYYEILNSSDKACNMAKQAFEEAIAELDTLGEESYKDSTLIMQLLRDNLTLWTSDMQEQMDEA
notes: Arabidopsis 14-3-3 isoform Lambda (non-epsilon group member), expressed from pGEX-4T1 as a translational fusion with GST; source: E. coli BL21(DE3), purified (glutathione agarose)
With B1, in test [1], the binding result is recorded as “binds”.

B2: GST-14-3-3 Epsilon (natural protein, Arabidopsis, UniProt P48347 1-254, looked up)
chain: MENEREKQVYLAKLSEQTERYDEMVEAMKKVAQLDVELTVEERNLVSVGYKNVIGARRASWRILSSIEQKEESKGNDENVKRLKNYRKRVEDELAKVCNDILSVIDKHLIPSSNAVESTVFFYKMKGDYYRYLAEFSSGAERKEAADQSLEAYKAAVAAAENGLAPTHPVRLGLALNFSVFYYEILNSPESACQLAKQAFDDAIAELDSLNEESYKDSTLIMQLLRDNLTLWTSDLNEEGDERTKGADEPQDEN
notes: Arabidopsis 14-3-3 isoform Epsilon (epsilon group member), expressed from pGEX-4T1 as a translational fusion with GST; source: E. coli BL21(DE3), purified (glutathione agarose)
As for B2, the binding result (in test [1]; with GFP-NPH3 S746A) was “binds” in each case.
